The source of these data is patent US6521741 (FRANK KOENTGEN, dated 2003).

In the assay the target is T1, streptavidin (UniProt P22629 37-163, limits assumed).
T1 construct: Immobilised on column material; also called streptavidin column; streptavidin matrix
The experiment in a line: streptavidin column pull-down, SDS gel. The text has this:
FIG. 11 is a photographic representation of LHL purified via kappa-loaded streptavidin column as shown on a silver stained 20% w/v polyacrylamide SDS PHAST-gel. LHL= LHL alone plus streptavidin matrix; LHL-kappa=LHL purified on the kappa-loaded streptavidin matrix; kappa=kappa alone bound to streptavidin matrix.

T1 sequence (P22629 37-163 limits assumed): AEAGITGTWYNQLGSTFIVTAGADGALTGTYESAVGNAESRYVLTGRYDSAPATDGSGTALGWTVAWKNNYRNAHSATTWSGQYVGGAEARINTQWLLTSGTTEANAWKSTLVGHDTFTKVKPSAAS

B1: LHL (designed binder)
chain: APKDNTEEVTIKANLIFANGSTQTAEFKGTFEKATSEAYAYADTLKKDNGEYTVDVADKGYTLNIKFAGKEATNRNTDGSTDYGILQINSRWGGLTLKEEVTIKANLIFANGSTQTAEFKGTFEKATSEAYAYADTLKKDNGEYTVDVADKGYTLNIKFAG
notes: Expressed in E. coli from pASK75; LHL carries no strep-tag; also called growth factor LHL
B1: the binding result was “no binding”.
